Experimental data published in patent US20220249685A1 (SILVERBACK THERAPEUTICS, published 2022).
Numbering of substitutions follows the chain as printed. Names may count otherwise.

B1: Antibody 55 (VH1-e G27Y, G55A, R66K, V67A, A71V / VKIII-L6) (antibody, V domains shown)
VH: QVQLVQSGAEVKKPGSSVKVSCKASGYTFSGYTMNWVRQAPGQGLEWMGLITPYNAASSYNQKFRGKATITVDKSTSTAYMELSSLRSEDTAVYYCARGGYDGRGFDYWGQGTTVTVSS
VL: EIVLTQSPATLSLSPGERATLSCSASSSVSYMHWYQQKPGQAPRLLIYDTSKLASGIPARFSGSGSGTDFTLTISSLEPEDFAVYYCQQWSKHPLTFGGGTKVEIK
B2: 55-IgG1-TLR8 conjugate (antibody, V domains shown)
VH: B1 VH
VL: B1 VL
modifications: cysteines freed by TCEP reduction may carry the drug-linker; positions not given; cysteines freed by TCEP reduction carry the TLR8 agonist drug-linker; positions not given
notes: also called 55-TLR8
B3: 56-IgG1-TLR8 conjugate (antibody, V domains shown)
VH: B1 VH with Y27G, K67R, A68V, V72A
VL: DIQMTQSPSTLSASVGDRVTITCSASSSVSYMHWYQQKPGKAPKLLIYDTSKLASGVPSRFSGSGSGTEFTLTISSLQPDDFATYYCQQWSKHPLTFGGGTKVEIK
modifications: cysteines freed by TCEP reduction may carry the drug-linker; positions not given; cysteines freed by TCEP reduction carry the TLR8 agonist drug-linker; positions not given
notes: also called 56-TLR8
B4: Antibody 56 (VH1-e CDRgraft G55A / VKI-L12) (antibody, V domains shown)
VH: B1 VH with Y27G, K67R, A68V, V72A
VL: B3 VL

What follows are binders tested against T1, human MSLN expressed on tumor cell lines (OVCAR3, NCI-N87) or on transfected HEK-293 cells (human, UniProt Q13421 296-598) (assay: flow cytometry on NCI-N87 cells, anti-huIgG1-PE, MFI (Geo Mean)).
T1 construct: whole, on cells; also called human mesothelin
T1 sequence (Q13421 other isoform, or with tags, fused parts or gaps limits assumed): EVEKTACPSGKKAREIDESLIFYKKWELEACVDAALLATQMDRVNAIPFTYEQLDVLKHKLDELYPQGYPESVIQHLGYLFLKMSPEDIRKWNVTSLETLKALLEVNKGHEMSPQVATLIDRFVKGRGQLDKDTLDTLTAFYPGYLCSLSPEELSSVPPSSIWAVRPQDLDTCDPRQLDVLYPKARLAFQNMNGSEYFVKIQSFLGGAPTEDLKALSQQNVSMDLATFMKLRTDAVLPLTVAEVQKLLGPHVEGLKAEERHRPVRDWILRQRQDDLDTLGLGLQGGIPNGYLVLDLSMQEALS

Binder | EC50 (read off the curve)
B1 | ~0.1 nM
B2 | ~0.2 nM
B3 | ~0.3 nM
B4 | ~0.2 nM

Each binder was assayed against T2, cynomolgus MSLN on transfected 293 cells (cynomolgus) (assay: flow cytometry on 293 cells transiently transfected with cyno MSLN, anti-huIgG1-PE, MFI (Geo Mean)).
T2 construct: whole, on cells; also called cyno MSLN; cynomolgus mesothelin

Binder | EC50 (read off the curve)
B1 | ~0.08 nM
B2 | ~0.1 nM
B3 | ~0.2 nM
B4 | ~0.1 nM
